Results from the Human Domainome abundance scans (Beltran et al. 2025).
± gives the uncertainty stated by the source.

B1: GAS2-like protein 1, residues 209 to 276; numbered along this chain, Q99501 (parent)
chain: DELVREILGRCTCPDQFPMIKVSEGKYRVGDSSLLIFVRVLRSHVMVRVGGGWDTLEHYLDKHDPCRC

Variants of: B1
Assay: abundance fitness (aPCA) (normalised: wild type 0, dead -1); higher = more abundant; growth selection in yeast, the domain comes from the species named
Settings: Homo sapiens

Abundance fitness: each site, then its substitutions
R10: N -0.234 ± 0.062, K -0.135 ± 0.063, G -0.432 ± 0.077, C -0.72 ± 0.11, W -0.728 ± 0.11, A -0.311 ± 0.052, S -0.318 ± 0.05, Y -0.564 ± 0.13, Q -0.088 ± 0.071, P -0.863 ± 0.16, F -0.448 ± 0.067, V -0.747 ± 0.099, E -0.386 ± 0.1, I -0.766 ± 0.14, T -0.111 ± 0.053, H -0.013 ± 0.051
G9: K -0.12 ± 0.067, V -0.587 ± 0.044, S 0.077 ± 0.031, T -0.346 ± 0.056, C -0.54 ± 0.088, Q 0.061 ± 0.066, P -0.818 ± 0.11, A 0.007 ± 0.061, I -0.572 ± 0.1, L -0.445 ± 0.054, H -0.221 ± 0.071, D 0.107 ± 0.05, M -0.127 ± 0.065, F -0.399 ± 0.097, W -0.71 ± 0.073, E 0.03 ± 0.063, N -0.076 ± 0.07, R -0.204 ± 0.043
P14: T -0.136 ± 0.053, A -0.142 ± 0.063, N -0.424 ± 0.12, Q -0.161 ± 0.074, R -0.147 ± 0.045, C -0.439 ± 0.11, M -0.457 ± 0.076, I -0.336 ± 0.073, V -0.213 ± 0.05, F -0.509 ± 0.17, K 0.016 ± 0.056, W -0.816 ± 0.12, S -0.162 ± 0.049, G -0.502 ± 0.079
E6: W -0.821 ± 0.093, Q -0.071 ± 0.053, Y -0.694 ± 0.19, H -0.452 ± 0.1, V -0.642 ± 0.1, K -0.151 ± 0.057, F -0.708 ± 0.15, D -0.136 ± 0.071, N -0.431 ± 0.23, T -0.141 ± 0.055, M -0.309 ± 0.069, R -0.165 ± 0.045, P -0.864 ± 0.1, C -0.701 ± 0.14, S -0.205 ± 0.044, G -0.347 ± 0.074, L -0.446 ± 0.042, I -0.521 ± 0.15
R5: H -0.15 ± 0.094, E 0.056 ± 0.06, L -0.178 ± 0.035, V -0.584 ± 0.12, P -0.947 ± 0.21, Y -0.185 ± 0.099, I -0.465 ± 0.094, K 0.091 ± 0.055, D -0.161 ± 0.23, Q 0.084 ± 0.063, N 0.194 ± 0.08, G -0.158 ± 0.053, S 0.093 ± 0.053, T -0.059 ± 0.053, F -0.257 ± 0.11, W -0.126 ± 0.053
C11: T -0.882 ± 0.12, A -0.618 ± 0.084, Q -0.986 ± 0.26, R -0.932 ± 0.086, P -1.17 ± 0.35, H -0.966 ± 0.26, V -0.752 ± 0.087, W -1 ± 0.15, F -0.848 ± 0.2, K -0.949 ± 0.13, Y -0.892 ± 0.12, D -0.84 ± 0.29, I -1.08 ± 0.33, L -0.895 ± 0.083, E -1 ± 0.2, S -0.961 ± 0.13, M -0.771 ± 0.15
L8: F -0.704 ± 0.12, A -0.352 ± 0.054, D -0.702 ± 0.25, K -0.948 ± 0.13, I -0.002 ± 0.063, H -0.436 ± 0.2, E -0.737 ± 0.089, G -0.819 ± 0.088, Q -0.323 ± 0.12, M -0.254 ± 0.1, C -0.47 ± 0.14, T -0.414 ± 0.058, Y -1.05 ± 0.19, S -0.532 ± 0.058, V -0.071 ± 0.035, P -0.819 ± 0.24, W -0.886 ± 0.12, R -0.754 ± 0.063, N -0.793 ± 0.13
I7: H -0.473 ± 0.076, P -1.04 ± 0.17, D -0.704 ± 0.36, N -0.74 ± 0.13, C -0.365 ± 0.069, Y -0.275 ± 0.14, W -0.748 ± 0.12, E -0.128 ± 0.056, M -0.273 ± 0.075, Q 0.069 ± 0.046, R -0.85 ± 0.097, L -0.012 ± 0.034, G -0.763 ± 0.082, V -0.219 ± 0.049, K -0.367 ± 0.12, T -0.38 ± 0.078
T12: Q -0.193 ± 0.077, E -0.381 ± 0.063, S -0.181 ± 0.043, C -0.247 ± 0.047, P -0.749 ± 0.14, K -0.169 ± 0.1, V -0.267 ± 0.041, M -0.419 ± 0.098, W -0.831 ± 0.2, H -0.542 ± 0.13, L -0.664 ± 0.058, Y -0.8 ± 0.19, D -0.797 ± 0.15, I -0.313 ± 0.069, N -0.355 ± 0.11
C13: Q -0.869 ± 0.15, Y -0.744 ± 0.14, M -0.786 ± 0.15, A -0.974 ± 0.19, K -1.13 ± 0.26, V -0.306 ± 0.074, S -0.728 ± 0.071, R -0.851 ± 0.087, D -0.752 ± 0.12, L -0.719 ± 0.072, G -0.682 ± 0.078, I -0.304 ± 0.1, W -0.922 ± 0.12, E -0.726 ± 0.2, H -0.874 ± 0.28, T -0.817 ± 0.15, P -0.972 ± 0.24, F -0.894 ± 0.13
